From patent publication US20250188194A1, “Method of treatment” (Nucleus Therapeutics Pty Ltd, priority 2021, published 2025)
Where “and” joins values, the source holds several entries; their conditions need not be identical. Equal values may be shown once. Entries after “also recorded” stand apart in the source; their conditions may differ.

Legend:
[1] = tested on: PLB-985 cells; test: Cellular penetration assay; type: cell-based, human; details: PLB-985 cells in culture, 5 μM DX1 for one hour
Procedure: FIG. 1. DX1 penetrates PLB-985 cells. Cells treated with control or 5 μM DX1 for one hour were washed, fixed, and immunostained to detect DX1. […] Dark stain represents alkaline phosphatase-based detection of signal. Bar: 25 μm.
Work with isolated mouse or human neutrophils is challenging due to their short functional lifespans, and granulocyte-differentiated HL-60 and their subclone PLB-985 human acute myeloid leukemia cells provide a reliable alternative to isolated neutrophils for NETosis studies. The nuclear-penetrating anti-DNA autoantibody 3E10 and its derivative DX1 require expression of the nucleoside transporter ENT2 in order to penetrate target cells. ENT2 expression in HL-60 cells has previously been reported, and DX1 was confirmed to penetrate into ˜100% of PLB-985 cells in culture (FIG. 1).
PLB-985 cells cultured on Shi-fix coverslips (Shikhar Biotech, Khumaltar, Lalitpur, Nepal) were treated for one hour with control media or media containing 5 μM DX1 and then washed and fixed in 100% chilled ethanol. Presence of DX1 in the cells was evaluated by incubation with Pierce™ Recombinant Protein L (1:1000) (#21189, Thermo Fisher Scientific), protein L polyclonal antibody (1:1000) (#PA1-72066, Thermo Fisher Scientific), and goat anti-chicken IgY (H+L) alkaline phosphatase secondary antibody (1:1000) (#PA1-28799, Thermo Fisher Scientific). […]

[2] = tested on: differentiated PLB-985 cells; test: H3Cit western blot; type: cell-based, human; details: 10 μM DX1 one hour, then PMA; PMA control 0.64±0.06; N=3
Procedure: FIGS. 5A-5B. […] Differentiated PLB-985 cells were pre-treated with control media or media containing 10 μM DX1 for one hour, followed by stimulation with PMA. Cellular contents were isolated and analyzed by H3Cit western blot. Representative cropped blot is shown in (5A), and quantification of H3Cit band intensity normalized to actin in (5B). […]
Histone citrullination by PAD4 is a key step in NETosis that is targeted by the selective PAD4 inhibitor GSK484. Differentiated PLB-985 cells treated with control or 10 μM DX1 for one hour were stimulated by PMA, and cell contents were isolated and analyzed for H3Cit content by western blot with normalization to actin. […]
Differentiated PLB-985 cells at 8×10^5 cells/well in 12-well plates were incubated with control buffer or buffer containing 10 μM DX1 for one hour and then stimulated by addition of 300 nM PMA for two hours. Cells were isolated by centrifugation, lysed in RIPA buffer, and H3Cit content determined by western blot using anti-H3Cit primary (#AB5103, abcam, Cambridge, MA, USA) and goat anti-rabbit HRP-conjugated secondary antibody at 1:5000 (#AB205718, abcam). H3Cit band intensities normalized to actin loading control were determined by ImageJ (NIH, Bethesda, MD).

[3] = tested on: MPO immunized mice; test: Mouse model of ANCA associated vasculitis; type: in vivo; details: one or two doses of DX1 at 25 mg/kg, assessed day 20, versus MPO immunized control
Procedure: FIG. 9. Graphic depiction of an experiment testing the impact of DX1 in a 20-day mouse model of ANCA vasculitis.
FIGS. 10A-10D. […] Mice were treated as depicted in FIG. 9. Glomerular segmental necrosis, macrophages, neutrophils, and CD4+ T-cells was evaluated in control and MPO-immunized mice that subsequently were treated with or without one or two doses of DX1.
Mice receiving two doses of DX1 received their second dose at day 18. Mice were culled for assessment at day 20.
Mice were separated into 4 groups: Ova control (n=4); MPO immunized no treatment with DX1 (n=8); MPO immunized and 1 dose of DX1 at 25 mg/kg (n=8) and; MPO immunized and 2 doses of DX1 at 25 mg/kg.

[4] = tested on: differentiated PLB-985 cells; test: Visualization of chromatin decondensation by DAPI stain after PMA stimulation; type: cell-based, human; details: one hour pre-treatment with 10 μM DX1, 300 nM PMA two hours; control cells 67.5%; N=2
Procedure: FIGS. 2A-2D. DAPI and SYTOX™ Green stains support the conclusion that DX1inhibits chromatin decondensation and DNA release by differentiated PLB-985 cells stimulated with PMA. (2A) Chromatin decondensation in differentiated PLB-985 cells after stimulation with PMA±a one hour pre-treatment with 10 μM DX1 was visualized by DAPI stain. Left panel: Control cells with decondensed DAPI stain after PMA stimulation. Right panel: DX1-treated cells retaining condensed DAPI signal after PMA stimulation. Bar: 25 μm. (2B) Quantification of the percentage of differentiated PLB-985 cells with decondensed DAPI stain after PMA stimulation. […] (2C) DNA release by differentiated PLB-985 cells after stimulation with PMA±a one hour pre-treatment with 10 μM DX1 was visualized by addition of the impermeant DNA stain SYTOX™ Green. Representative images are shown. Bar: 25 μm. (2D) SYTOX™ Green signal in wells containing differentiated PLB-985 cells stimulated with PMA±a one hour pre-treatment with 10 […] was quantified by plate reader. […]
Differentiated PLB-985 cells were plated on Shi-fix coverslips in 12-well plates at 5×10^4 cells/well. […] Cells were fixed with ethanol followed by addition of DAPI and visualization of chromatin decondensation by fluorescence microscopy (EVOS FL, Thermo Fisher Scientific).

B1: DX1: 3E10 derivative, a di-scFv having the sequence SEQ ID NO: 38; nuclear-penetrating anti-DNA binding protein (protein)
scFv: DIQMTQSPSSLSASLGDRATITCRASKTVSTSSYSYMHWYQQKPGQPPKLLIKYASYLESGVPSRFSGSGSGTDFTLTISSLQPEDAATYYCQHSREFPWTFGGGTKVEIKTVDAAPGGGGSGGGGSGGGGSEVQLVESGGGLVQPGGSLRLSCAASGFTFSNYGMHWVRQAPGKGLEWVSYISSGSSTIYYADSVKGRFTISRDNAKNSLYLQMNSLRAEDTAVYYCARRGLLLDYWGQGTTVTVSSASTKGPSVFPLAPLESTGSDIQMTQSPSSLSASLGDRATITCRASKTVSTSSYSYMHWYQQKPGQPPKLLIKYASYLESGVPSRFSGSGSGTDFTLTISSLQPEDAATYYCQHSREFPWTFGGGTKVEIKTVDAAPGGGGSGGGGSGGGGSEVQLVESGGGLVQPGGSLRLSCAASGFTFSNYGMHWVRQAPGKGLEWVSYISSGSSTIYYADSVKGRFTISRDNAKNSLYLQMNSLRAEDTAVYYCARRGLLLDYWGQGTTVTVSS
modifications: DX1 sequence
- cells penetrated by DX1 [1]: ~100%
- intracellular H3Cit content normalized to actin, relative to unstimulated cells [2]: 1.46±0.20
- glomerular segmental necrosis, macrophages, neutrophils and CD4+ T-cells (glomerular inflammation and pathology) [3]: significantly reduced glomerular inflammation and pathology; also recorded: significantly reduced amounts of all of the signs of glomerular inflammation
- percentage of cells with decondensed DAPI stain after PMA stimulation [4]: 37.8±2.7% and 37.8±3.8%
